T1: 14-3-3ζ nhpSer58 with a FLAG tag at its N-terminus (Homo sapiens (Human)), P63104
T1 chain: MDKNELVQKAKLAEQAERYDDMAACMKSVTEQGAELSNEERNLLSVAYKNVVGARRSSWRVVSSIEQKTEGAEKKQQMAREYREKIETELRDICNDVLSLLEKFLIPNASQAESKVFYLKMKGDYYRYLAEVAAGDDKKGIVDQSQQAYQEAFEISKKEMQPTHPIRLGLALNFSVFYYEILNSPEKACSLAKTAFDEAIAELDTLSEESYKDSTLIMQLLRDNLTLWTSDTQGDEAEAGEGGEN

B1: Histone deacetylase complex subunit SAP18 [OS = Homo sapiens] (protein, UniProt O00422 2-153, looked up)
chain: AVESRVTQEEIKKEPEKPIDREKTCPLLLRVFTTNNGRHHRMDEFSRGNVPSSELQIYTWMDATLKELTSLVKEVYPEARKKGTHFNFAIVFTDVKRPGYRVKEIGSTMSGRKGTDDSMTLQSQKFQIGDYLDIAITPPNRAPPPSGRMRPY
B2: WD and tetratricopeptide repeats protein 1 [OS = Homo sapiens] (protein, UniProt Q8N5D0 1-677, looked up)
chain: MAKVNITRDLIRRQIKERGALSFERRYHVTDPFIRRLGLEAELQGHSGCVNCLEWNEKGDLLASGSDDQHTIVWDPLHHKKLLSMHTGHTANIFSVKFLPHAGDRILITGAADSKVHVHDLTVKETIHMFGDHTNRVKRIATAPMWPNTFWSAAEDGLIRQYDLRENSKHSEVLIDLTEYCGQLVEAKCLTVNPQDNNCLAVGASGPFVRLYDIRMIHNHRKSMKQSPSAGVHTFCDRQKPLPDGAAQYYVAGHLPVKLPDYNNRLRVLVATYVTFSPNGTELLVNMGGEQVYLFDLTYKQRPYTFLLPRKCHSSGEVQNGKMSTNGVSNGVSNGLHLHSNGFRLPESRGHVSPQVELPPYLERVKQQANEAFACQQWTQAIQLYSKAVQRAPHNAMLYGNRAAAYMKRKWDGDHYDALRDCLKAISLNPCHLKAHFRLARCLFELKYVAEALECLDDFKGKFPEQAHSSACDALGRDITAALFSKNDGEEKKGPGGGAPVRLRSTSRKDSISEDEMVLRERSYDYQFRYCGHCNTTTDIKEANFFGSNAQYIVSGSDDGSFFIWEKETTNLVRVLQGDESIVNCLQPHPSYCFLATSGIDPVVRLWNPRPESEDLTGRVVEDMEGASQANQRRMNADPLEVMLLNMGYRITGLSSGGAGASDDEDSSEGQVQCRPS
B3: serrate RNA effector molecule homolog [OS = Homo sapiens] (protein, UniProt Q9BXP5 2-876, looked up)
chain: GDSDDEYDRRRRDKFRRERSDYDRSRERDERRRGDDWNDREWDRGRERRSRGEYRDYDRNRRERFSPPRHELSPPQKRMRRDWDEHSSDPYHSGYEMPYAGGGGGPTYGPPQPWGHPDVHIMQHHVLPIQARLGSIAEIDLGVPPPVMKTFKEFLLSLDDSVDETEAVKRYNDYKLDFRRQQMQDFFLAHKDEEWFRSKYHPDEVGKRRQEARGALQNRLRVFLSLMETGWFDNLLLDIDKADAIVKMLDAAVIKMEGGTENDLRILEQEEEEEQAGKPGEPSKKEEGRAGAGLGDGERKTNDKDEKKEDGKQAENDSSNDDKTKKSEGDGDKEEKKEDSEKEAKKSSKKRNRKHSGDDSFDEGSVSESESESESGQAEEEKEEAEEALKEKEKPKEEEWEKPKDAAGLECKPRPLHKTCSLFMRNIAPNISRAEIISLCKRYPGFMRVALSEPQPERRFFRRGWVTFDRSVNIKEICWNLQNIRLRECELSPGVNRDLTRRVRNINGITQHKQIVRNDIKLAAKLIHTLDDRTQLWASEPGTPPLPTSLPSQNPILKNITDYLIEEVSAEEEELLGSSGGAPPEEPPKEGNPAEINVERDEKLIKVLDKLLLYLRIVHSLDYYNTCEYPNEDEMPNRCGIIHVRGPMPPNRISHGEVLEWQKTFEEKLTPLLSVRESLSEEEAQKMGRKDPEQEVEKFVTSNTQELGKDKWLCPLSGKKFKGPEFVRKHIFNKHAEKIEEVKKEVAFFNNFLTDAKRPALPEIKPAQPPGPAQILPPGLTPGLPYPHQTPQGLMPYGQPRPPILGYGAGAVRPAVPTGGPPYPHAPYGAGRGNYDAFRGQGGYPGKPRNRMVRGDPRAIVEYRDLDAPDDVDFF
B4: 14-3-3 protein theta [OS = Homo sapiens], P27348 1-245 (protein, UniProt P27348 1-245, looked up)
chain: MEKTELIQKAKLAEQAERYDDMATCMKAVTEQGAELSNEERNLLSVAYKNVVGGRRSAWRVISSIEQKTDTSDKKLQLIKDYREKVESELRSICTTVLELLDKYLIANATNPESKVFYLKMKGDYFRYLAEVACGDDRKQTIDNSQGAYQEAFDISKKEMQPTHPIRLGLALNFSVFYYEILNNPELACTLAKTAFDEAIAELDTLNEDSYKDSTLIMQLLRDNLTLWTSDSAGEECDAAEGAEN
B5: Serine/arginine-rich splicing factor 10 [OS = Homo sapiens], O75494 1-262 (protein, UniProt O75494 1-262, looked up)
chain: MSRYLRPPNTSLFVRNVADDTRSEDLRREFGRYGPIVDVYVPLDFYTRRPRGFAYVQFEDVRDAEDALHNLDRKWICGRQIEIQFAQGDRKTPNQMKAKEGRNVYSSSRYDDYDRYRRSRSRSYERRRSRSRSFDYNYRRSYSPRNSRPTGRPRRSRSHSDNDRFKHRNRSFSRSKSNSRSRSKSQPKKEMKAKSRSRSASHTKTRGTSKTDSKTHYKSGSRYEKESRKKEPPRSKSQSRSQSRSRSKSRSRSWTSPKSSGH
B6: GTPase-activating protein and VPS9 domain-containing protein 1 [OS = Homo sapiens] (protein, UniProt Q14C86 1-1478, looked up)
chain: MVKLDIHTLAHHLKQERLYVNSEKQLIQRLNADVLKTAEKLYRTAWIAKQQRINLDRLIITSAEASPAECCQHAKILEDTQFVDGYKQLGFQETAYGEFLSRLRENPRLIASSLVAGEKLNQENTQSVIYTVFTSLYGNCIMQEDESYLLQVLRYLIEFELKESDNPRRLLRRGTCAFSILFKLFSEGLFSAKLFLTATLHEPIMQLLVEDEDHLETDPNKLIERFSPSQQEKLFGEKGSDRFRQKVQEMVESNEAKLVALVNKFIGYLKQNTYCFPHSLRWIVSQMYKTLSCVDRLEVGEVRAMCTDLLLACFICPAVVNPEQYGIISDAPINEVARFNLMQVGRLLQQLAMTGSEEGDPRTKSSLGKFDKSCVAAFLDVVIGGRAVETPPLSSVNLLEGLSRTVVYITYSQLITLVNFMKSVMSGDQLREDRMALDNLLANLPPAKPGKSSSLEMTPYNTPQLSPATTPANKKNRLPIATRSRSRTNMLMDLHMDHEGSSQETIQEVQPEEVLVISLGTGPQLTPGMMSENEVLNMQLSDGGQGDVPVDENKLHGKPDKTLRFSLCSDNLEGISEGPSNRSNSVSSLDLEGESVSELGAGPSGSNGVEALQLLEHEQATTQDNLDDKLRKFEIRDMMGLTDDRDISETVSETWSTDVLGSDFDPNIDEDRLQEIAGAAAENMLGSLLCLPGSGSVLLDPCTGSTISETTSEAWSVEVLPSDSEAPDLKQEERLQELESCSGLGSTSDDTDVREVSSRPSTPGLSVVSGISATSEDIPNKIEDLRSECSSDFGGKDSVTSPDMDEITHGAHQLTSPPSQSESLLAMFDPLSSHEGASAVVRPKVHYARPSHPPPDPPILEGAVGGNEARLPNFGSHVLTPAEMEAFKQRHSYPERLVRSRSSDIVSSVRRPMSDPSWNRRPGNEERELPPAAAIGATSLVAAPHSSSSSPSKDSSRGETEERKDSDDEKSDRNRPWWRKRFVSAMPKAPIPFRKKEKQEKDKDDLGPDRFSTLTDDPSPRLSAQAQVAEDILDKYRNAIKRTSPSDGAMANYESTGDNHDRDLSSKLLYHSDKEVMGDGESAHDSPRDEALQNISADDLPDSASQAAHPQDSAFSYRDAKKKLRLALCSADSVAFPVLTHSTRNGLPDHTDPEDNEIVCFLKVQIAEAINLQDKNLMAQLQETMRCVCRFDNRTCRKLLASIAEDYRKRAPYIAYLTRCRQGLQTTQAHLERLLQRVLRDKEVANRYFTTVCVRLLLESKEKKIREFIQDFQKLTAADDKTAQVEDFLQFLYGAMAQDVIWQNASEEQLQDAQLAIERSVMNRIFKLAFYPNQDGDILRDQVLHEHIQRLSKVVTANHRALQIPEVYLREAPWPSAQSEIRTISAYKTPRDKVQCILRMCSTIMNLLSLANEDSVPGADDFVPVLVFVLIKANPPCLLSTVQYISSFYASCLSGEESYWWMQFTAAVEFIKTIDDRK
B7: transformer-2 protein homolog beta [OS = Homo sapiens] (protein, UniProt P62995 2-288, looked up)
chain: SDSGEQNYGERESRSASRSGSAHGSGKSARHTPARSRSKEDSRRSRSKSRSRSESRSRSRRSSRRHYTRSRSRSRSHRRSRSRSYSRDYRRRHSHSHSPMSTRRRHVGNRANPDPNCCLGVFGLSLYTTERDLREVFSKYGPIADVSIVYDQQSRRSRGFAFVYFENVDDAKEAKERANGMELDGRRIRVDFSITKRPHTPTPGIYMGRPTYGSSRRRDYYDRGYDRGYDDRDYYSRSYRGGGGGGGGWRAAQDRDQIYRRRSPSPYYSRGGYRSRSRSRSYSPRRY
B8: 14-3-3 protein epsilon [OS = Homo sapiens], P62258 1-255 (protein, UniProt P62258 1-255, looked up)
chain: MDDREDLVYQAKLAEQAERYDEMVESMKKVAGMDVELTVEERNLLSVAYKNVIGARRASWRIISSIEQKEENKGGEDKLKMIREYRQMVETELKLICCDILDVLDKHLIPAANTGESKVFYYKMKGDYHRYLAEFATGNDRKEAAENSLVAYKAASDIAMTELPPTHPIRLGLALNFSVFYYEILNSPDRACRLAKAAFDDAIAELDTLSEESYKDSTLIMQLLRDNLTLWTSDMQGDGEEQNKEALQDVEDENQ
B9: 14-3-3 protein sigma [OS = Homo sapiens], P31947 1-248 (protein, UniProt P31947 1-248, looked up)
chain: MERASLIQKAKLAEQAERYEDMAAFMKGAVEKGEELSCEERNLLSVAYKNVVGGQRAAWRVLSSIEQKSNEEGSEEKGPEVREYREKVETELQGVCDTVLGLLDSHLIKEAGDAESRVFYLKMKGDYYRYLAEVATGDDKKRIIDSARSAYQEAMDISKKEMPPTNPIRLGLALNFSVFHYEIANSPEEAISLAKTTFDEAMADLHTLSEDSYKDSTLIMQLLRDNLTLWTADNAGEEGGEAPQEPQS

Key:
[1] = target: 14-3-3ζ nhpSer58 with a FLAG tag at its N-terminus (Homo sapiens (Human)) (UniProt P63104)
[2] = target: T1, 14-3-3ζ nhpSer58 with a FLAG tag at its …; details: remark: other sources report otherwise

Binder | FC [1] [fold] | FC [2] [fold]
B1 | 0.187 | –
B2 | 0.202 | –
B3 | 0.12 | –
B4 | – | 0.0473
B5 | – | 0.0496
B6 | 0.177 | –
B7 | 0.194 | –
B8 | – | 0.0482
B9 | – | 0.0526
